The record followed here is the Human Domainome abundance scans (Beltran et al. 2025).

± gives the uncertainty stated by the source.

A short description of this data set: abundance fitness (aPCA) (normalised: wild type 0, dead -1); higher = more abundant; growth selection in yeast, the domain comes from the species named. The following applies: Homo sapiens.
For “Lipoamide acyltransferase component of branched-chain alpha-keto acid dehydrogenase complex, mitochondrial G195V, P11182”, the abundance fitness is -0.702 ± 0.059.
“Lipoamide acyltransferase component of branched-chain alpha-keto acid dehydrogenase complex, mitochondrial G195W, P11182” yielded an abundance fitness of -1.25 ± 0.11.
With “Lipoamide acyltransferase component of branched-chain alpha-keto acid dehydrogenase complex, mitochondrial G195Y, P11182”, the abundance fitness is -0.977 ± 0.35.
The same measure for “Lipoamide acyltransferase component of branched-chain alpha-keto acid dehydrogenase complex, mitochondrial G198A, P11182”: -0.517 ± 0.044.
The same measure for “Lipoamide acyltransferase component of branched-chain alpha-keto acid dehydrogenase complex, mitochondrial G198C, P11182”: -0.666 ± 0.14; for “Lipoamide acyltransferase component of branched-chain alpha-keto acid dehydrogenase complex, mitochondrial G198D, P11182”: -0.341 ± 0.11.
On to “Lipoamide acyltransferase component of branched-chain alpha-keto acid dehydrogenase complex, mitochondrial G198E, P11182”, for which the abundance fitness is -0.506 ± 0.052.
In turn, “Lipoamide acyltransferase component of branched-chain alpha-keto acid dehydrogenase complex, mitochondrial G198F, P11182” showed an abundance fitness of -0.771 ± 0.25.
Take “Lipoamide acyltransferase component of branched-chain alpha-keto acid dehydrogenase complex, mitochondrial G198H, P11182”: the abundance fitness is -0.267 ± 0.062.
“Lipoamide acyltransferase component of branched-chain alpha-keto acid dehydrogenase complex, mitochondrial G198I, P11182” returned an abundance fitness of -1.24 ± 0.23.
In turn, “Lipoamide acyltransferase component of branched-chain alpha-keto acid dehydrogenase complex, mitochondrial G198K, P11182” displayed an abundance fitness of -0.406 ± 0.18.
The substance “Lipoamide acyltransferase component of branched-chain alpha-keto acid dehydrogenase complex, mitochondrial G198M, P11182” showed an abundance fitness of -0.57 ± 0.1.
As to “Lipoamide acyltransferase component of branched-chain alpha-keto acid dehydrogenase complex, mitochondrial G198P, P11182”, the abundance fitness is -0.776 ± 0.097.
For the substance “Lipoamide acyltransferase component of branched-chain alpha-keto acid dehydrogenase complex, mitochondrial G198Q, P11182”, the abundance fitness is -0.301 ± 0.051.
“Lipoamide acyltransferase component of branched-chain alpha-keto acid dehydrogenase complex, mitochondrial G198R, P11182” had an abundance fitness of -0.514 ± 0.044.
Consider “Lipoamide acyltransferase component of branched-chain alpha-keto acid dehydrogenase complex, mitochondrial G198S, P11182”, for which the abundance fitness is -0.412 ± 0.04.
On to “Lipoamide acyltransferase component of branched-chain alpha-keto acid dehydrogenase complex, mitochondrial G198T, P11182”, for which the abundance fitness is -0.647 ± 0.078.
Next, “Lipoamide acyltransferase component of branched-chain alpha-keto acid dehydrogenase complex, mitochondrial G198V, P11182”: -1.04 ± 0.085.
The same measure for “Lipoamide acyltransferase component of branched-chain alpha-keto acid dehydrogenase complex, mitochondrial G198W, P11182”: -0.982 ± 0.16; for “Lipoamide acyltransferase component of branched-chain alpha-keto acid dehydrogenase complex, mitochondrial G214A, P11182”: 0.014 ± 0.054.
The same measure for “Lipoamide acyltransferase component of branched-chain alpha-keto acid dehydrogenase complex, mitochondrial G214C, P11182”: -0.066 ± 0.057; for “Lipoamide acyltransferase component of branched-chain alpha-keto acid dehydrogenase complex, mitochondrial G214D, P11182”: -0.041 ± 0.071; for “Lipoamide acyltransferase component of branched-chain alpha-keto acid dehydrogenase complex, mitochondrial G214E, P11182”: 0.135 ± 0.12.
Substance “Lipoamide acyltransferase component of branched-chain alpha-keto acid dehydrogenase complex, mitochondrial G214H, P11182” displayed an abundance fitness of 0.016 ± 0.17.
Next, “Lipoamide acyltransferase component of branched-chain alpha-keto acid dehydrogenase complex, mitochondrial G214K, P11182”: 0.129 ± 0.076; “Lipoamide acyltransferase component of branched-chain alpha-keto acid dehydrogenase complex, mitochondrial G214M, P11182”: -0.154 ± 0.23; “Lipoamide acyltransferase component of branched-chain alpha-keto acid dehydrogenase complex, mitochondrial G214N, P11182”: -0.41 ± 0.18.
“Lipoamide acyltransferase component of branched-chain alpha-keto acid dehydrogenase complex, mitochondrial G214P, P11182”: the abundance fitness was -0.474 ± 0.2.
In the case of “Lipoamide acyltransferase component of branched-chain alpha-keto acid dehydrogenase complex, mitochondrial G214Q, P11182”, the abundance fitness worked out at 0.133 ± 0.074.
Take “Lipoamide acyltransferase component of branched-chain alpha-keto acid dehydrogenase complex, mitochondrial G214R, P11182”: the abundance fitness is -0.002 ± 0.039.
For “Lipoamide acyltransferase component of branched-chain alpha-keto acid dehydrogenase complex, mitochondrial G214S, P11182”, the abundance fitness is -0.028 ± 0.078.
“Lipoamide acyltransferase component of branched-chain alpha-keto acid dehydrogenase complex, mitochondrial G214T, P11182”: the abundance fitness was -0.034 ± 0.13.
In turn, “Lipoamide acyltransferase component of branched-chain alpha-keto acid dehydrogenase complex, mitochondrial G214V, P11182” showed an abundance fitness of -0.08 ± 0.065.
